Numbering of substitutions follows the chain as printed. Names and notes keep the numbering of the source.
Experiments:
[1] = biological target: T1, Fcγ RI (UniProt P12314 16-288, limits assumed); experiment: Biacore
T1 construct: also called FcγR1

[2] = biological target: T2, Fcγ RIIa, variant 131H (UniProt P12318 36-218, limits assumed); experiment: Biacore
T2 construct: also called FcγRIIa 131H
T2 sequence (looked up): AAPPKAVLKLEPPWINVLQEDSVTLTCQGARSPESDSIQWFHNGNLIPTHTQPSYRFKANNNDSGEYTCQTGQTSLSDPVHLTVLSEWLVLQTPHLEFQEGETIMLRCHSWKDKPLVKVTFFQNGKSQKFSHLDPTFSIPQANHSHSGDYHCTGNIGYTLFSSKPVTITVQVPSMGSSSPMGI

[3] = biological target: T3, Fcγ RIIa, variant 131R (UniProt P12318 36-218, limits assumed); experiment: Biacore
T3 construct: also called FcγRIIa 131R
T3 sequence (looked up): T2 sequence (looked up) with H132R

[4] = biological target: T4, Fcγ RIIb (UniProt P31994 46-217, limits assumed); experiment: Biacore
T4 sequence (looked up): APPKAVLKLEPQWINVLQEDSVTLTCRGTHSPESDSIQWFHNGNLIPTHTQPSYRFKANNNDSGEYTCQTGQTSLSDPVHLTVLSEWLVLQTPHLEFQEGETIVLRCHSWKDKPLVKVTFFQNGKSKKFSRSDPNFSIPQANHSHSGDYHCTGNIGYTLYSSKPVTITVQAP

[5] = biological target: T5, Fcγ RIIIa, variant 158F (UniProt P08637 17-208); experiment: Biacore
T5 construct: also called FcγRIIIa 158F
T5 sequence (P08637 17-208 limits assumed, change not shown): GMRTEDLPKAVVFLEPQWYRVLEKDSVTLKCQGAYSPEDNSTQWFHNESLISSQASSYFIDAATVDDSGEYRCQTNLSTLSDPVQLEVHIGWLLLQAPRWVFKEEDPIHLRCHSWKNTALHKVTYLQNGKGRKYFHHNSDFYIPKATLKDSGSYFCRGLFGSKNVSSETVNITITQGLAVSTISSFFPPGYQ

[6] = biological target: T6, TL1A (UniProt O95150 72-251); experiment: direct ELISA
T6 sequence (looked up): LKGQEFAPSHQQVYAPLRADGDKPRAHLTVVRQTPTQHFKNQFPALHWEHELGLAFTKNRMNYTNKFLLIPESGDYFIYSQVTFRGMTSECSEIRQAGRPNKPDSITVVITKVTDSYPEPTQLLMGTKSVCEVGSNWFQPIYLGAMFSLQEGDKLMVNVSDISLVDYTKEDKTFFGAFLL

[7] = biological target: T7, Fas ligand (UniProt P48023 134-281, limits assumed); experiment: direct ELISA
T7 sequence (looked up): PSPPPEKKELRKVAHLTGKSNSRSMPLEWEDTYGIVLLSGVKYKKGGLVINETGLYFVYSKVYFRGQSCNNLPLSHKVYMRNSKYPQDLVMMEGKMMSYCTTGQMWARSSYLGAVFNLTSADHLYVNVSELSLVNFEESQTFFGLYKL

[8] = biological target: T8, mouse TNF (mouse, UniProt P06804 80-235); experiment: Biacore SPR
T8 construct: also called murine TNF; rodent TNF (mouse)
T8 sequence (looked up): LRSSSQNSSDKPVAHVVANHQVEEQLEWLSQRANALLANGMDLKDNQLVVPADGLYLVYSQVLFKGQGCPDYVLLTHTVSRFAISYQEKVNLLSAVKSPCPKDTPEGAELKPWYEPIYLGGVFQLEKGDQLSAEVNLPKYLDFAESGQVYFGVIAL

[9] = biological target: T9, rat TNF (rat, UniProt P16599 80-235); experiment: Biacore SPR
T9 construct: also called rodent TNF (rat); rat rTNF
T9 sequence (looked up): T8 sequence (looked up) with V22A, V58I, N91S, V96I, I117M, Q130L, F143I, A144T

[10] = biological target: T10, rabbit TNF (rabbit, UniProt P04924 80-235, limits assumed); experiment: Biacore SPR
T10 construct: also called rabbit rTNF
T10 sequence (looked up): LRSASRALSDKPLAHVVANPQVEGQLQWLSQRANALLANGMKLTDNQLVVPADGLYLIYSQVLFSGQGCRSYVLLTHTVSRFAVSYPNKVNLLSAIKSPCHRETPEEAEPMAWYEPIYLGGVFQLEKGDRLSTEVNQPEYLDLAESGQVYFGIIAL

[11] = biological target: T11, human TNF-α (human, UniProt P01375 77-233); experiment: cell-based or functional assay
T11 sequence (P01375 77-233 limits assumed): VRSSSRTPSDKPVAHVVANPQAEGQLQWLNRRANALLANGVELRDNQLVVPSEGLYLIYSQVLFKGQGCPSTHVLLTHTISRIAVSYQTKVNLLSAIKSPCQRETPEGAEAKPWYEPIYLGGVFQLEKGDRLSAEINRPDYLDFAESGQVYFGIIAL

[12] = biological target: T12, human IL-17A/A homodimer (human, UniProt Q16552 24-155); experiment: cell-based or functional assay
T12 sequence: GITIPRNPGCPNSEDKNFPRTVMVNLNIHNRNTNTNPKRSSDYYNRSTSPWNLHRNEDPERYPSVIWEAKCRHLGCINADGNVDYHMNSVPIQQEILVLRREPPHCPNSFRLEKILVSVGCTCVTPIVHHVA

[13] = biological target: T13, human IL-17A/F heterodimer (human, UniProt Q16552 24-155; Q96PD4 31-163); experiment: cell-based or functional assay
T13 sequence 1: T12 sequence
T13 sequence 2: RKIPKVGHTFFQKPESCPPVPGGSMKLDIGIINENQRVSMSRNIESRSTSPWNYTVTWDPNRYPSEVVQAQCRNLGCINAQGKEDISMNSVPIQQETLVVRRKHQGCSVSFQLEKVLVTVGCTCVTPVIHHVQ

[14] = biological target: T14, monkey (Rhesus/Cynomolgus) IL-17 (monkey (Rhesus/Cynomolgus), UniProt F6T3G5 24-155); experiment: Biacore SPR, 3 experiments; unit not printed in Table 10
T14 construct: also called monkey IL-17; monkey rIL-17
T14 sequence: T12 sequence with T3A, N17T, I77V, P104R

[15] = biological target: T15, rat IL-17 (rat, UniProt Q61453 18-150, limits assumed); experiment: as above
T15 construct: also called rodent IL-17 (rat)
T15 sequence (looked up): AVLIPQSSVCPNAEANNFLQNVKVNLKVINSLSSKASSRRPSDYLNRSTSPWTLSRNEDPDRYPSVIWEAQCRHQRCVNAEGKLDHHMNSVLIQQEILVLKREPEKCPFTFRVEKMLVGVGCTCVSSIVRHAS

[16] = biological target: T11, human TNF-α; experiment: Biacore SPR, recombinant antigen, mean of 3 experiments; exponent as printed

T1 sequence (P12314 16-288 limits assumed): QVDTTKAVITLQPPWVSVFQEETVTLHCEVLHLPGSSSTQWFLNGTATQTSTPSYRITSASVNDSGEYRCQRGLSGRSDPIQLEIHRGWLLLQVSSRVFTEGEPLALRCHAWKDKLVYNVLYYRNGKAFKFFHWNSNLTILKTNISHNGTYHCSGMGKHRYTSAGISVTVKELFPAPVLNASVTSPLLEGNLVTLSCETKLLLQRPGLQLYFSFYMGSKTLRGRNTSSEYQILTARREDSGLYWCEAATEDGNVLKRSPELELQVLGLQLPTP

B1: ABBV-257 anti-human TNF and IL-17 DVD-Ig binding protein (bispecific antibody, human IgG1, kappa, L234A L235A)
heavy: EVQLVQSGAEVKKPGASVKVSCKASGYTFANYGIIWVRQAPGQGLEWMGWINTYTGKPTYAQKFQGRVTMTTDTSTSTAYMELSSLRSEDTAVYYCARKLFTTMDVTDNAMDYWGQGTTVTVSSGGGGSGGGGSEVQLVQSGAEVKKPGSSVKVSCKASGYTFTDYEIHWVRQAPGQGLEWMGVNDPESGGTFYNQKFDGRVTLTADESTSTAYMELSSLRSEDTAVYYCTRYSKWDSFDGMDYWGQGTTVTVSSASTKGPSVFPLAPSSKSTSGGTAALGCLVKDYFPEPVTVSWNSGALTSGVHTFPAVLQSSGLYSLSSVVTVPSSSLGTQTYICNVNHKPSNTKVDKKVEPKSCDKTHTCPPCPAPEAAGGPSVFLFPPKPKDQLMISRTPEVTCVVVDVSHEDPEVKFNWYVDGVEVHNAKTKPREEQYNSTYRVVSVLTVLHQDWLNGKEYKCKVSNKALPAPIEKTISKAKGQPREPQVYTLPPSREEMTKNQVSLTCLVKGFYPSDIAVEWESNGQPENNYKTTPPVLDSDGSFFLYSKLTVDKSRWQQGNVFSCSVLHEALHNHYTQKSLSLSPGK
light: DIQMTQSPSSLSASVGDRVTITCRASQDISQYLNWYQQKPGKAPKLLIYYTSRLQSGVPSRFSGSGSGTDFTLTISSLQPEDFATYFCQQGNTWPPTFGQGTKLEIKRGGSGGGGSGDIQMTQSPSSLSASVGDRVTITCRASSGIISYIDWFQQKPGKAPKRLIYATFDLASGVPSRFSGSGSGTDYTLTISSLQPEDFATYYCRQVGSYPETFGQGTKLEIKRTVAAPSVFIFPPSDEQLKSGTASVVCLLNNFYPREAKVQWKVDNALQSGNSQESVTEQDSKDSTYSLSSTLTLSKADYEKHKVYACEVTHQGLSSPVTKSFNRGEC
modifications: N-linked glycans on the heavy chain at the asparagine commonly modified on IgG1 antibodies (fucosylated biantennary oligosaccharides with 0, 1 or 2 galactose residues)
notes: It says the constant region carries L234A, L235A and also T250Q and M428L; also called Anti-IL-17/TNF DVD-Ig Protein
binding result [1]: no binding | binding result [2]: no binding | binding result [3]: no binding | binding result [4]: no binding | binding result [5]: no binding | binding result [6]: no binding | binding result [7]: no binding | binding result [8]: no binding (tested: at concentrations up to 500 nM of rTNF) | binding result [9]: no binding (tested: at concentrations up to 500 nM of rTNF) | binding result [10]: no binding (tested: at concentrations up to 500 nM of rTNF) | Mean IC50, inhibition of TNF-induced lethality of L929 cells [11]: 25 pM | Mean IC50, inhibition of IL-17 dependent induction of IL-6 in fibroblasts [12]: 26 pM | Mean IC50, inhibition of IL-17 dependent induction of IL-6 in fibroblasts [13]: 110 pM | Kd [14]: 11 pM | Kd [15]: < 35 pM | koff [16]: 1.6e-05 s⁻¹
